Measured values from patent publication KR20210118351A (dated 2021).
Where a chain is given by its changes, count along the chain named. Where two headings read alike, the source gives them in different places.

B1: No. 260 항체 (Full IgG) (antibody, V domains shown)
VH: EVQLVESGGGLVQPGRTLRLSCAASGFTFDDYAMHWVRQPPGKGLEWVSGIDWNSGLIGYADAVKGRFTLSRDNAKNSIFLQMNSLRAEDTALYYCVKDMGSTGGYYGMDVWGQGTTVIVSS
VL: not shown
B2: No. 152 항체 (Full IgG) (antibody, V domains shown)
VH: QITLKESGPSLVKPSQTLTLTCTFSGFSLTTSGMGVGWIRQPPGKALEWLALIDWDDNKYYTTSLKTRLTISKDTSKNQVVLTMTNMDPVDTATYYCARIPGFLRYRNRYYYYGMDVWGQGTTVTVSS
VL: ELVLTQPPSVSAAPGQKVTISCSGRSSNIGNNYVSWYQQLPGTAPKLLIYDNNKRPSGIPDRFSGSKSGTSATLGITGLQTGDEADYYCGTWDSSLSAGVFGGGTQLTVL
B3: No. 284 항체 (Full IgG) (antibody, V domains shown)
VH: QVQLVQSGGGLVQPGGSLRLSCAASGVTVSSNYMSWVRQAPGKGLEWVSVIYSGGSTYYADSVKGRFTISRHNSKNTLYLQMNSLRAEDTAVYYCARGHVDIPYGMDVWGQGTTVTVSS
VL: B2 VL with R25S
B4: No. 270 항체 (Full IgG) (antibody, V domains shown)
VH: QVQLVQSGGGLVQPGGSLRLSCAASGLTVSSNYMTWVRQAPGKGLEWVSVIYSGGSTFYADSVKGRFTISRDNSKNTLYLQMNSLRAEDTAVYYCARDLVVYGMDVWGQGTTVTVSS
VL: ELVLTQSPGTLSLSPGERATLSCRASQSVSSYLAWYQQKPGQAPRLLIYDASNRATGIPARFSGSGSGTDFTLTISSLEPEDFAVYYCQQYGSSPLTFGGGTKVDIK
B5: No. 275 항체 (Full IgG) (antibody, V domains shown)
VH: B4 VH with Q1E, Q6E, L27F
VL: ELVLTQPPSVSVAPGKTARITCGGNNIGSNTVNWYQQLPGTAPKLLIYSNNLRPSGVPDRFSGSKSGTSASLAISGLQSEDEADYYCAAWDDSLNGPVFGGGTKVTVL
B6: No. 281 항체 (Full IgG) (antibody, V domains shown)
VH: B4 VH with L27I, T35S, F58N, V100I
VL: ELVLTQPPSVSGAPGQRVTISCTGSSSNIGAGYDVHWYQQLPGTAPKLLIYGNSNRPSGVPDRFSGSKSGTSASLAITGLQAEDEADYYCAAWDDSLSGWVFGGGTKVTVL
B7: No. 271 항체 (Full IgG) (antibody, V domains shown)
VH: B4 VH with Q1E, Q6E, L27F
VL: ELELTQPPSASGTPGQRVTISCSGSSSNIGSNTVNWYQQLPGTAPKLLIYSNNQRPSGVPDRFSGSKSGTSASLAISGLQSEDEADYYCSSYAGSNNLVFGGGTKLTVL
B8: No. 274 항체 (Full IgG) (antibody, V domains shown)
VH: B4 VH with Q1E, Q6E, L27F
VL: ELELTQPPSVSGAPGQRVTISCTGSSSNIGAGYDVHWYQQLPGTAPKLLIYGNSNRPSGVPDRFSGSKSGTSASLAITGLQAEDEADYYCQSYDSSLGVVFGGGTKVTVL
B9: No. 217 항체 (Full IgG) (antibody, V domains shown)
VH: EVQLVESGGGVVQPGRSLRLSCAASGFTFSRFAMHWVRQAPGKGLEWVAVVSYDGSNNYYADSVKGRFTISRDNSKNTLYLQMNSLRAEDTAVYYCARGDYYGSGSYYNPSPFFDYWGQGTLVTVSS
VL: not shown
B10: No. 230 항체 (Full IgG) (antibody, V domains shown)
VH: B9 VH with E1Q, E6Q, R31N, V51I, N58K, S75F
VL: not shown
B11: No. 218 항체 (Full IgG) (antibody, V domains shown)
VH: B9 VH with E1Q, E6Q, R31S, V51I, Y53F, N58K, R67Q
VL: ELELTQPPSVSGTPGQRVSISCSGSTSNIGSNPVNWFQQLPGTAPKLLIYSNNQRPSGVPNRFSGSKSGTSASLAISGLQSDDEADYYCAAWDDSLNGWVFGGGTKVTVL

Key:
Experiment in all cases: cell-based or functional assay
[1] = target: T1, S protein of SARS-CoV-2 BetaCoV/Korea/KCDC03/2020 (614D, S형) (SARS-CoV-2, UniProt P0DTC2 14-1273)
[2] = target: T1, S protein of SARS-CoV-2 …; remark: listed apart in the source
[3] = target: S protein of SARS-CoV-2 hCoV-19/South Korea/KUMC17/2020 (614G) (SARS-CoV-2, UniProt P0DTC2 14-1273)

Binder | IC50, PRNT [1] | IC50, PRNT [2] | IC50, PRNT [3]
B1 | 0.401 µg/mL | > 1 µg/mL | > 1 µg/mL
B2 | 0.0062 µg/mL | – | –
B3 | 0.702 µg/mL | – | –
B4 | 0.152 µg/mL | – | –
B5 | 0.272 µg/mL | – | –
B6 | 1.43 µg/mL | – | –
B7 | 1.68 µg/mL | – | –
B8 | 0.301 µg/mL | – | –
B9 | 5.95 µg/mL | – | –
B10 | 0.432 µg/mL | – | –
B11 | 0.562 µg/mL | – | –
